Assay results reported in publication PMC5808845.

What was measured:
GST-TRF2 = GST-TRF2 (human, UniProt Q15554 43-542); assay: EMSA
GST-TRF1 = GST-TRF1 (human, UniProt P54274 1-439); assay: EMSA
Sequence of GST-TRF1 (P54274 whole entry): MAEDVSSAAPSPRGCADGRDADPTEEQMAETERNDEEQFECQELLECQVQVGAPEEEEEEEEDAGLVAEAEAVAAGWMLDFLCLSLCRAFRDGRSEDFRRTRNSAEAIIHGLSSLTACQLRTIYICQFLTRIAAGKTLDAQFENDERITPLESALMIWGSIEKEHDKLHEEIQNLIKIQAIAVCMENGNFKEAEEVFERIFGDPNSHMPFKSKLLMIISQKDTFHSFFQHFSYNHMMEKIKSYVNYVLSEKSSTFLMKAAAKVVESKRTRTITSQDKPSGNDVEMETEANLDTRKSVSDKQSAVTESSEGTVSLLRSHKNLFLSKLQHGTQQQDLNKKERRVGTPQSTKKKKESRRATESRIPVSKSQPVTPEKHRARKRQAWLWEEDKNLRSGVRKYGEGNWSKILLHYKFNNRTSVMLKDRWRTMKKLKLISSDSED

Sequence of GST-TRF2 (Q15554 43-542): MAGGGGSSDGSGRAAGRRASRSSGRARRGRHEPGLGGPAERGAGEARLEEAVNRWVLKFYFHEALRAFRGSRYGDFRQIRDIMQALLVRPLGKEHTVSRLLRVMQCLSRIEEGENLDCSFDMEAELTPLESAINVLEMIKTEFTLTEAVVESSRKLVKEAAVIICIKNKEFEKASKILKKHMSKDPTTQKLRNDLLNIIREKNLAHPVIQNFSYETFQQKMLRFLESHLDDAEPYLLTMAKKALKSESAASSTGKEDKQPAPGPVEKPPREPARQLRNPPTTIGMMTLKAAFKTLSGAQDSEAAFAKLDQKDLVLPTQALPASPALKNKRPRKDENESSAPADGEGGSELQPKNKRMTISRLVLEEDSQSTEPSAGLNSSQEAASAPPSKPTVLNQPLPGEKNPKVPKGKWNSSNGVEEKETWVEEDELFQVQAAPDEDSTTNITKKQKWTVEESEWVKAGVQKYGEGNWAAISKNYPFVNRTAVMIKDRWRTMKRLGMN

Binder | binding result (GST-TRF2) | binding result (GST-TRF1)
CCCUAACCCUAACCCUAACCCUAACCCUAA (ssRNA) [(CCCUAA)5 RNA] | no binding | no binding
AGAGAUUGCCUGACGUCAGAGAGCUAGCGA (ssRNA) [random RNA] | no binding | no binding
TTAGGGTTAGGGTTAGGGTTAGGGTTAGGG (ssDNA) [(TTAGGG)5 DNA] | no binding | no binding
TATCGATAAGCTTGATATCGAATTCCTGCA (ssDNA) [random DNA] | no binding | no binding
